# Test results published in US20250352661A1 (MYTHIC THERAPEUTICS, published 2025).
# T1: Human LRRC15 Protein, His Tag (Acro Biosystems) (human, UniProt Q8TF66 22-538, limits assumed)
# T1 construct: not shown: His tag
# T1 sequence (looked up): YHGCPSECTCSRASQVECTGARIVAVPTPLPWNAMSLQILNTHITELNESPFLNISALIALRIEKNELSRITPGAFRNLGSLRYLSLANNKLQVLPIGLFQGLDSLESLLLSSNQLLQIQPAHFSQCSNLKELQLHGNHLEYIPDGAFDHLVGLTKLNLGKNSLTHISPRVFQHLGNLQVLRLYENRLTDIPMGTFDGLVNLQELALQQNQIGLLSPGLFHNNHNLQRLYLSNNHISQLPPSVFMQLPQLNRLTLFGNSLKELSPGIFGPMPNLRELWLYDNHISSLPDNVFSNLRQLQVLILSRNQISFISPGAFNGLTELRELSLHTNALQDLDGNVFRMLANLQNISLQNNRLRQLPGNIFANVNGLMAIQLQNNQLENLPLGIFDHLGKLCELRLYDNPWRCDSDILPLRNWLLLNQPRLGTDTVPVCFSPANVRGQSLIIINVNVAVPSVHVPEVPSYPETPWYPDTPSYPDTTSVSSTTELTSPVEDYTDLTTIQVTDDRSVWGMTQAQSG
# T2: Human LRRC15 Protein, His Tag, Acro Biosystems (human, UniProt Q8TF66 22-538, limits assumed)
# T2 construct: not shown: His tag
# T2 sequence (looked up): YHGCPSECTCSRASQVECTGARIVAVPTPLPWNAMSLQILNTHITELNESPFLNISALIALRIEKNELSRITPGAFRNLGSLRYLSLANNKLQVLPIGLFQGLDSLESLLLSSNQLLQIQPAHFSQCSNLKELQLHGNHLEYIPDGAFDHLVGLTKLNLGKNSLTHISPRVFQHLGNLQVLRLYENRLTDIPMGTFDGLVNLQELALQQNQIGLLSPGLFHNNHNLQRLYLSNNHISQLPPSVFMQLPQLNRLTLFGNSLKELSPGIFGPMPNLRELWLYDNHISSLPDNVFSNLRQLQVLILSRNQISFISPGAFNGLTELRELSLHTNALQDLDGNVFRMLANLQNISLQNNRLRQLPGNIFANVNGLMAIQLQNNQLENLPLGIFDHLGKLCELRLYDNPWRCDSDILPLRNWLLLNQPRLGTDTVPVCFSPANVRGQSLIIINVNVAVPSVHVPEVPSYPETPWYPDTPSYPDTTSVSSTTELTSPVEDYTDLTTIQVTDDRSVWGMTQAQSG
# Biological target: T1, Human LRRC15 Protein, His Tag (Acro …)
# Experiment: BLI; dissociation pH 7.4 black, pH 5.4 grey [1/2); D00019 FIG. 4B (1/2]
# Experimental: Desirable mutations were transferred to a humanized framework (humanized, MYT 8387-8411). After allowing for four days of protein expression, cell culture supernatants were collected, quantified by SDS-PAGE analysis, and the pH dependence of the variant was evaluated using biolayer interferometry (BLI) on an Octet RED 96e instrument. Briefly, cell culture supernatants were diluted based on qualitative expression level of the variant determined by visual examination of SDS-PAGE gels, 5 μL of cell culture supernatant was diluted into 195 μL of 1×PBST, pH 7.4 for high expressors, 25 μL of cell culture supernatant was diluted into 175 μL of 1×PBST, pH 7.4 for medium expressors and 100 μL of cell culture supernatant was diluted into 100 μL of 1×PBST, pH 7.4 for low expressors for loading onto the sensor tips. The resulting diluted supernatants were then captured on an anti-human Fc sensor (Forte Bio). A baseline was established using 1×PBST (50 mM Potassium Phosphate Buffer+150 mM NaCl+0.05% Tween 20) pH 7.4, and the […] was associated with 50 nM of LRRC15 (Human LRRC15 Protein, His Tag, Acro Biosystems) in 1×PBST pH 7.4 for 120 sec to generate an association curve. In the dissociation phase, the antibody-antigen complex on the sensor was exposed to 1×PBST pH 7.4 or pH 5.4, for 300 sec. Association and dissociation phase curves were examined for the starting ABPC antibody (with no substitutions) and each corresponding antibody variant at pH 5.4 and pH 7.4 to inform on two criteria: a) enhanced dissociation (i.e., higher koff values) at pH 5.4 due to histidine substitution compared to the starting ABPC, (with no substitutions), and b) reduced dissociation at pH 7.4 (i.e., lower koff values) compared to pH 5.4 in the antibody variant itself and with the starting ABPC (with no substitutions).
# The methods of Examples 9-10 were applied to RabMAb clone 29F1 (rabbit VH SEQ ID NO: 572 and VL SEQ ID NO: 578; and humanized VH SEQ ID NO: 576 and VL SEQ ID NO: 582).
row,binding result,Binder
1,binds,"MYT9480 (antibody, V domains shown, Humanized 29F1 VH aspartate variant; also called hu29F1 VH S56D) VH: EVQLVESGGGLVQPGGSLRLSCTASGFSFSSSHWICWVRQAPGKGLEWVGCIYAGDIGSTYYASWAKGRFTISRDTSKNTVYLQMNSLRAEDTAVYYCARAPNDIYNYYFNLWGQGTLVTVSS VL: EIVMTQSPSTLSASVGDRVIITCQASENIYNYLAWYQQKPGKAPKLLIYYASTLASGVPSRFSGSGSGAEFTLTISSLQPDDFATYYCQSGYVSKSSTFGQGTKLTVL"
2,binds,"MYT9494 (antibody, V domains shown, also called hu29F1 VH R100D) VH: EVQLVESGGGLVQPGGSLRLSCTASGFSFSSSHWICWVRQAPGKGLEWVGCIYAGSIGSTYYASWAKGRFTISRDTSKNTVYLQMNSLRAEDTAVYYCADAPNDIYNYYFNLWGQGTLVTVSS VL: EIVMTQSPSTLSASVGDRVIITCQASENIYNYLAWYQQKPGKAPKLLIYYASTLASGVPSRFSGSGSGAEFTLTISSLQPDDFATYYCQSGYVSKSSTFGQGTKLTVL"
3,binds,"MYT9476 (antibody, V domains shown, also called hu29F1 VH I52D) VH: EVQLVESGGGLVQPGGSLRLSCTASGFSFSSSHWICWVRQAPGKGLEWVGCDYAGSIGSTYYASWAKGRFTISRDTSKNTVYLQMNSLRAEDTAVYYCARAPNDIYNYYFNLWGQGTLVTVSS VL: EIVMTQSPSTLSASVGDRVIITCQASENIYNYLAWYQQKPGKAPKLLIYYASTLASGVPSRFSGSGSGAEFTLTISSLQPDDFATYYCQSGYVSKSSTFGQGTKLTVL"
4,binds,"MYT9489 (antibody, V domains shown, also called hu29F1 VH W65D) VH: EVQLVESGGGLVQPGGSLRLSCTASGFSFSSSHWICWVRQAPGKGLEWVGCIYAGSIGSTYYASDAKGRFTISRDTSKNTVYLQMNSLRAEDTAVYYCARAPNDIYNYYFNLWGQGTLVTVSS VL: EIVMTQSPSTLSASVGDRVIITCQASENIYNYLAWYQQKPGKAPKLLIYYASTLASGVPSRFSGSGSGAEFTLTISSLQPDDFATYYCQSGYVSKSSTFGQGTKLTVL"
5,binds,"MYT9488 (antibody, V domains shown, also called hu29F1 VH S64D) VH: EVQLVESGGGLVQPGGSLRLSCTASGFSFSSSHWICWVRQAPGKGLEWVGCIYAGSIGSTYYADWAKGRFTISRDTSKNTVYLQMNSLRAEDTAVYYCARAPNDIYNYYFNLWGQGTLVTVSS VL: EIVMTQSPSTLSASVGDRVIITCQASENIYNYLAWYQQKPGKAPKLLIYYASTLASGVPSRFSGSGSGAEFTLTISSLQPDDFATYYCQSGYVSKSSTFGQGTKLTVL"
6,binds,"MYT9485 (antibody, V domains shown, also called hu29F1 VH Y61D) VH: EVQLVESGGGLVQPGGSLRLSCTASGFSFSSSHWICWVRQAPGKGLEWVGCIYAGSIGSTDYASWAKGRFTISRDTSKNTVYLQMNSLRAEDTAVYYCARAPNDIYNYYFNLWGQGTLVTVSS VL: EIVMTQSPSTLSASVGDRVIITCQASENIYNYLAWYQQKPGKAPKLLIYYASTLASGVPSRFSGSGSGAEFTLTISSLQPDDFATYYCQSGYVSKSSTFGQGTKLTVL"
7,binds,"MYT9487 (antibody, V domains shown, also called hu29F1 VH A63D) VH: EVQLVESGGGLVQPGGSLRLSCTASGFSFSSSHWICWVRQAPGKGLEWVGCIYAGSIGSTYYDSWAKGRFTISRDTSKNTVYLQMNSLRAEDTAVYYCARAPNDIYNYYFNLWGQGTLVTVSS VL: EIVMTQSPSTLSASVGDRVIITCQASENIYNYLAWYQQKPGKAPKLLIYYASTLASGVPSRFSGSGSGAEFTLTISSLQPDDFATYYCQSGYVSKSSTFGQGTKLTVL"
8,binds,"MYT9484 (antibody, V domains shown, also called hu29F1 VH T60D) VH: EVQLVESGGGLVQPGGSLRLSCTASGFSFSSSHWICWVRQAPGKGLEWVGCIYAGSIGSDYYASWAKGRFTISRDTSKNTVYLQMNSLRAEDTAVYYCARAPNDIYNYYFNLWGQGTLVTVSS VL: EIVMTQSPSTLSASVGDRVIITCQASENIYNYLAWYQQKPGKAPKLLIYYASTLASGVPSRFSGSGSGAEFTLTISSLQPDDFATYYCQSGYVSKSSTFGQGTKLTVL"
9,binds,"MYT9481 (antibody, V domains shown, also called hu29F1 VH I57D) VH: EVQLVESGGGLVQPGGSLRLSCTASGFSFSSSHWICWVRQAPGKGLEWVGCIYAGSDGSTYYASWAKGRFTISRDTSKNTVYLQMNSLRAEDTAVYYCARAPNDIYNYYFNLWGQGTLVTVSS VL: EIVMTQSPSTLSASVGDRVIITCQASENIYNYLAWYQQKPGKAPKLLIYYASTLASGVPSRFSGSGSGAEFTLTISSLQPDDFATYYCQSGYVSKSSTFGQGTKLTVL"
10,binds,"MYT9490 (antibody, V domains shown, also called hu29F1 VH A66D) VH: EVQLVESGGGLVQPGGSLRLSCTASGFSFSSSHWICWVRQAPGKGLEWVGCIYAGSIGSTYYASWDKGRFTISRDTSKNTVYLQMNSLRAEDTAVYYCARAPNDIYNYYFNLWGQGTLVTVSS VL: EIVMTQSPSTLSASVGDRVIITCQASENIYNYLAWYQQKPGKAPKLLIYYASTLASGVPSRFSGSGSGAEFTLTISSLQPDDFATYYCQSGYVSKSSTFGQGTKLTVL"
11,binds,"MYT9493 (antibody, V domains shown, Humanized 29F1 VH aspartate variant; also called hu29F1 VH A99D) VH: EVQLVESGGGLVQPGGSLRLSCTASGFSFSSSHWICWVRQAPGKGLEWVGCIYAGSIGSTYYASWAKGRFTISRDTSKNTVYLQMNSLRAEDTAVYYCDRAPNDIYNYYFNLWGQGTLVTVSS VL: EIVMTQSPSTLSASVGDRVIITCQASENIYNYLAWYQQKPGKAPKLLIYYASTLASGVPSRFSGSGSGAEFTLTISSLQPDDFATYYCQSGYVSKSSTFGQGTKLTVL"
12,binds,"MYT9491 (antibody, V domains shown, also called hu29F1 VH K67D) VH: EVQLVESGGGLVQPGGSLRLSCTASGFSFSSSHWICWVRQAPGKGLEWVGCIYAGSIGSTYYASWADGRFTISRDTSKNTVYLQMNSLRAEDTAVYYCARAPNDIYNYYFNLWGQGTLVTVSS VL: EIVMTQSPSTLSASVGDRVIITCQASENIYNYLAWYQQKPGKAPKLLIYYASTLASGVPSRFSGSGSGAEFTLTISSLQPDDFATYYCQSGYVSKSSTFGQGTKLTVL"
13,binds,"MYT9486 (antibody, V domains shown, also called hu29F1 VH Y62D) VH: EVQLVESGGGLVQPGGSLRLSCTASGFSFSSSHWICWVRQAPGKGLEWVGCIYAGSIGSTYDASWAKGRFTISRDTSKNTVYLQMNSLRAEDTAVYYCARAPNDIYNYYFNLWGQGTLVTVSS VL: EIVMTQSPSTLSASVGDRVIITCQASENIYNYLAWYQQKPGKAPKLLIYYASTLASGVPSRFSGSGSGAEFTLTISSLQPDDFATYYCQSGYVSKSSTFGQGTKLTVL"

# Biological target: T2, Human LRRC15 Protein, His Tag, Acro …
# Experiment: BLI; dissociation pH 7.4 black, pH 5.4 grey [D00028 FIG. 7B]
row,binding result,Binder
1,binds,"MYT9727 (antibody, V domains shown, Humanized 29F1 with VL Q24E; captured by anti-human Fc sensor) VH: EVQLVESGGGLVQPGGSLRLSCTASGFSFSSSHWICWVRQAPGKGLEWVGCIYAGSIGSTYYASWAKGRFTISRDTSKNTVYLQMNSLRAEDTAVYYCARAPNDIYNYYFNLWGQGTLVTVSS VL: EIVMTQSPSTLSASVGDRVIITCEASENIYNYLAWYQQKPGKAPKLLIYYASTLASGVPSRFSGSGSGAEFTLTISSLQPDDFATYYCQSGYVSKSSTFGQGTKLTVL"
2,binds,"MYT9728 (antibody, V domains shown, also called hu29F1 VL A25E) VH: EVQLVESGGGLVQPGGSLRLSCTASGFSFSSSHWICWVRQAPGKGLEWVGCIYAGSIGSTYYASWAKGRFTISRDTSKNTVYLQMNSLRAEDTAVYYCARAPNDIYNYYFNLWGQGTLVTVSS VL: EIVMTQSPSTLSASVGDRVIITCQESENIYNYLAWYQQKPGKAPKLLIYYASTLASGVPSRFSGSGSGAEFTLTISSLQPDDFATYYCQSGYVSKSSTFGQGTKLTVL"
